Results from patent publication US20210292422A1 (SURROZEN, published 2021).

T1: LRP6E1E2 (UniProt O75581 20-630)
T1 construct: domain: E1E2; also called LRP6 E1E2 domains
T1 sequence (looked up): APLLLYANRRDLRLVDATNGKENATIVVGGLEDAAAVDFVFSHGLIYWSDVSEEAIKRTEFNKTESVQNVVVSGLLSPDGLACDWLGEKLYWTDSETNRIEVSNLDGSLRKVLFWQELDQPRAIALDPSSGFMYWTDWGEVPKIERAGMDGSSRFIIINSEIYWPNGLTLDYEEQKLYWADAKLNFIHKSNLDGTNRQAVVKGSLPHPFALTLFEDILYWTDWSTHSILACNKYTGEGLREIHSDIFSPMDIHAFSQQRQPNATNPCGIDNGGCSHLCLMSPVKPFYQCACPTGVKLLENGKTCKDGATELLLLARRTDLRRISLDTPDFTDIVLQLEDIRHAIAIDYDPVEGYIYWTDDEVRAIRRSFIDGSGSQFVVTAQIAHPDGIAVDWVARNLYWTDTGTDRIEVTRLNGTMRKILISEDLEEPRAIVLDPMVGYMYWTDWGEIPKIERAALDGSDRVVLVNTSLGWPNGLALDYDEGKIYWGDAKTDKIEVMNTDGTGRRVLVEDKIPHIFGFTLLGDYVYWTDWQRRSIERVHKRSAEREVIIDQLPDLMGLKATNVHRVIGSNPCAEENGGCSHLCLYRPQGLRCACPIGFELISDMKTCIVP

T2: LRP6E3E4 (UniProt O75581 631-1246)
T2 construct: domain: E3E4
T2 sequence (looked up): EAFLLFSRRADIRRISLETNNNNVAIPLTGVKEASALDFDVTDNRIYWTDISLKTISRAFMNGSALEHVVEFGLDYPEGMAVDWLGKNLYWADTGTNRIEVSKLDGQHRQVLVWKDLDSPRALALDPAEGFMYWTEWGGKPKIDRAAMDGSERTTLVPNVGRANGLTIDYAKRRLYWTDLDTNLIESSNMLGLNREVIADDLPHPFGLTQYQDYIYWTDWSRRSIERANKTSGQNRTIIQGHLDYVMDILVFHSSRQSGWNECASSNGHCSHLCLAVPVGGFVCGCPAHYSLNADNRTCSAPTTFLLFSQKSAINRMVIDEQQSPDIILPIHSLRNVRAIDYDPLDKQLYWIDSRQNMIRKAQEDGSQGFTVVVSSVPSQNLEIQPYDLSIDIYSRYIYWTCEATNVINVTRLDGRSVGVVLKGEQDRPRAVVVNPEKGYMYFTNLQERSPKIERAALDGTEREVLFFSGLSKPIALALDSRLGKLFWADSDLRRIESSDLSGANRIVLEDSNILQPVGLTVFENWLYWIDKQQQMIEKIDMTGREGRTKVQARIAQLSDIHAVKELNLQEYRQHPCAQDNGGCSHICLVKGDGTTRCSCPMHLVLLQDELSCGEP

T3: FZD8 CRD (UniProt Q9H461 30-151)
T3 construct: domain: CRD
T3 sequence (looked up): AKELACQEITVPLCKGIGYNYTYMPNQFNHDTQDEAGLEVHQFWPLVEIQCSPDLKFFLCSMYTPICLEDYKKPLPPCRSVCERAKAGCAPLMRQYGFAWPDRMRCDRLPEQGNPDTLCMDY


Key:
LRP6E1E2 = target: T1, LRP6E1E2; assay: BLI (Octet), FIG. 12E
LRP6E3E4 [1] = target: T2, LRP6E3E4; assay: BLI (Octet), FIG. 12E
FZD8 CRD = target: T3, FZD8 CRD; assay: BLI (Octet), sequential: FZD8 CRD on sensor, tandem scFv, then LRP6 E3E4
LRP6E3E4 [2] = target: T2, LRP6E3E4; assay: as above

Binder | binding result (LRP6E1E2) | binding result (LRP6E3E4 [1]) | binding result (FZD8 CRD) | binding result (LRP6E3E4 [2])
L1:5:αGFP:Fc (bispecific antibody, 0FZD:2LRP control) DVKLVESGGGLVKLGGSLRLSCAASGFSFSTSYMSWVRQTPEKRLELVAAINLNGGSTYYSDTVKGRFTISRDNAKNTLYLQMSSLKSEDTAFYYCASELAGYGTPFAYWGQGTLVTVSAGSAASGSSGGSSSGADIVLTQSPATLSVTPGDSVSLSCKASQSISYNLHWYQQKSHESPRLLIKYTSQSISGIPSRFSGSGSGTDFTLTINNVETEDFGMYFCQQSNSWPLTFGAGTKLEVKGSGSGQVQLVESGGGLVQPGGSLRLSCAASGFTFSRYGMHWVRQAPGKGLEWVSGISSIGSNTYYADSVKGRFTISRDNSKNTLYLQMNSLRAEDTAVYYCARWYKTYIDVWGQGTLVTVSSGGGGSGGGGSGGGGSDIELTQPPSVSVAPGQTARISCSGDNLGKKYVYWYQQKPGQAPVLVIYGDDERPSGIPERFSGSNSGNTATLTISGTQAEDEADYYCASYDSSHILIVFGGGTKLTVLGSGSGDKTHTCPPCPAPEAAGGPSVFLFPPKPKDTLMISRTPEVTCVVVDVSHEDPEVKFNWYVDGVEVHNAKTKPREEQYNSTYRVVSVLTVLHQDWLNGKEYKCKVSNKALGAPIEKTISKAKGQPREPQVYTLPPSREEMTKNQVSLTCLVKGFYPSDIAVEWESNGQPENNYKTTPPVLDSDGSFFLYSKLTVDKSRWQQGNVFSCSVMHEALHNHYTQKSLSLSPGK | binds | – | – | –
αGFP:5:L2:Fc (bispecific antibody, 0FZD:2LRP control) QVQLVESGGGLVQPGGSLRLSCAASGFTFSRYGMHWVRQAPGKGLEWVSGISSIGSNTYYADSVKGRFTISRDNSKNTLYLQMNSLRAEDTAVYYCARWYKTYIDVWGQGTLVTVSSGGGGSGGGGSGGGGSDIELTQPPSVSVAPGQTARISCSGDNLGKKYVYWYQQKPGQAPVLVIYGDDERPSGIPERFSGSNSGNTATLTISGTQAEDEADYYCASYDSSHILIVFGGGTKLTVLGSGSGEVQLVESGGGLVQPGGSLRLSCAASGFTFTSYYISWVRQAPGKGLEWVAEISPYSGSTYYADSVKGRFTISADTSKNTAYLQMNSLRAEDTAVYYCALRARPPIRLHPRGSVMDYWGQGTLVTVSSGSAASGSSGGSSSGADIQMTQSPSSLSASVGDRVTITCRASQDVSTAVAWYQQKPGKAPKLLIYSASFLYSGVPSRFSGSGSGTDFTLTISSLQPEDFATYYCQQSYTTPPTFGQGTKVEIKGSGSGDKTHTCPPCPAPEAAGGPSVFLFPPKPKDTLMISRTPEVTCVVVDVSHEDPEVKFNWYVDGVEVHNAKTKPREEQYNSTYRVVSVLTVLHQDWLNGKEYKCKVSNKALGAPIEKTISKAKGQPREPQVYTLPPSREEMTKNQVSLTCLVKGFYPSDIAVEWESNGQPENNYKTTPPVLDSDGSFFLYSKLTVDKSRWQQGNVFSCSVMHEALHNHYTQKSLSLSPGK | – | binds | – | –

The remaining lines, values ahead:

binding result (LRP6E1E2) | binding result (LRP6E3E4 [1]) | binding result (FZD8 CRD) | binding result (LRP6E3E4 [2]) | Binder
– | – | binds | binds | L2:5:F3_His (bispecific antibody, 1:1 tandem scFv) EVQLVESGGGLVQPGGSLRLSCAASGFTFTSYYISWVRQAPGKGLEWVAEISPYSGSTYYADSVKGRFTISADTSKNTAYLQMNSLRAEDTAVYYCALRARPPIRLHPRGSVMDYWGQGTLVTVSSGSAASGSSGGSSSGADIQMTQSPSSLSASVGDRVTITCRASQDVSTAVAWYQQKPGKAPKLLIYSASFLYSGVPSRFSGSGSGTDFTLTISSLQPEDFATYYCQQSYTTPPTFGQGTKVEIKGSGSGEVQLVESGGGLVQPGGSLRLSCAASGFNISYSYIHWVRQAPGKGLEWVASIYSSSGSTSYADSVKGRFTISADTSKNTAYLQMNSLRAEDTAVYYCARGAIDYWGQGTLVTVSSGGGGSGGGGSGGGGSDIQMTQSPSSLSASVGDRVTITCRASQSVSSAVAWYQQKPGKAPKLLIYSASSLYSGVPSRFSGSRSGTDFTLTISSLQPEDFATYYCQQWYSSGHVLITFGQGTKVEIKGSGSGHHHHHH
binds | – | – | – | αGFP:5:L1:Fc (bispecific antibody, 0FZD:2LRP control) QVQLVESGGGLVQPGGSLRLSCAASGFTFSRYGMHWVRQAPGKGLEWVSGISSIGSNTYYADSVKGRFTISRDNSKNTLYLQMNSLRAEDTAVYYCARWYKTYIDVWGQGTLVTVSSGGGGSGGGGSGGGGSDIELTQPPSVSVAPGQTARISCSGDNLGKKYVYWYQQKPGQAPVLVIYGDDERPSGIPERFSGSNSGNTATLTISGTQAEDEADYYCASYDSSHILIVFGGGTKLTVLGSGSGDVKLVESGGGLVKLGGSLRLSCAASGFSFSTSYMSWVRQTPEKRLELVAAINLNGGSTYYSDTVKGRFTISRDNAKNTLYLQMSSLKSEDTAFYYCASELAGYGTPFAYWGQGTLVTVSAGSAASGSSGGSSSGADIVLTQSPATLSVTPGDSVSLSCKASQSISYNLHWYQQKSHESPRLLIKYTSQSISGIPSRFSGSGSGTDFTLTINNVETEDFGMYFCQQSNSWPLTFGAGTKLEVKGSGSGDKTHTCPPCPAPEAAGGPSVFLFPPKPKDTLMISRTPEVTCVVVDVSHEDPEVKFNWYVDGVEVHNAKTKPREEQYNSTYRVVSVLTVLHQDWLNGKEYKCKVSNKALGAPIEKTISKAKGQPREPQVYTLPPSREEMTKNQVSLTCLVKGFYPSDIAVEWESNGQPENNYKTTPPVLDSDGSFFLYSKLTVDKSRWQQGNVFSCSVMHEALHNHYTQKSLSLSPGK
– | binds | – | – | L2:5:αGFP:Fc (bispecific antibody, 0FZD:2LRP control) EVQLVESGGGLVQPGGSLRLSCAASGFTFTSYYISWVRQAPGKGLEWVAEISPYSGSTYYADSVKGRFTISADTSKNTAYLQMNSLRAEDTAVYYCALRARPPIRLHPRGSVMDYWGQGTLVTVSSGSAASGSSGGSSSGADIQMTQSPSSLSASVGDRVTITCRASQDVSTAVAWYQQKPGKAPKLLIYSASFLYSGVPSRFSGSGSGTDFTLTISSLQPEDFATYYCQQSYTTPPTFGQGTKVEIKGSGSGQVQLVESGGGLVQPGGSLRLSCAASGFTFSRYGMHWVRQAPGKGLEWVSGISSIGSNTYYADSVKGRFTISRDNSKNTLYLQMNSLRAEDTAVYYCARWYKTYIDVWGQGTLVTVSSGGGGSGGGGSGGGGSDIELTQPPSVSVAPGQTARISCSGDNLGKKYVYWYQQKPGQAPVLVIYGDDERPSGIPERFSGSNSGNTATLTISGTQAEDEADYYCASYDSSHILIVFGGGTKLTVLGSGSGDKTHTCPPCPAPEAAGGPSVFLFPPKPKDTLMISRTPEVTCVVVDVSHEDPEVKFNWYVDGVEVHNAKTKPREEQYNSTYRVVSVLTVLHQDWLNGKEYKCKVSNKALGAPIEKTISKAKGQPREPQVYTLPPSREEMTKNQVSLTCLVKGFYPSDIAVEWESNGQPENNYKTTPPVLDSDGSFFLYSKLTVDKSRWQQGNVFSCSVMHEALHNHYTQKSLSLSPGK
– | – | binds | binds | F3:5:L2_His (bispecific antibody, 1:1 tandem scFv) EVQLVESGGGLVQPGGSLRLSCAASGFNISYSYIHWVRQAPGKGLEWVASIYSSSGSTSYADSVKGRFTISADTSKNTAYLQMNSLRAEDTAVYYCARGAIDYWGQGTLVTVSSGGGGSGGGGSGGGGSDIQMTQSPSSLSASVGDRVTITCRASQSVSSAVAWYQQKPGKAPKLLIYSASSLYSGVPSRFSGSRSGTDFTLTISSLQPEDFATYYCQQWYSSGHVLITFGQGTKVEIKGSGSGEVQLVESGGGLVQPGGSLRLSCAASGFTFTSYYISWVRQAPGKGLEWVAEISPYSGSTYYADSVKGRFTISADTSKNTAYLQMNSLRAEDTAVYYCALRARPPIRLHPRGSVMDYWGQGTLVTVSSGSAASGSSGGSSSGADIQMTQSPSSLSASVGDRVTITCRASQDVSTAVAWYQQKPGKAPKLLIYSASFLYSGVPSRFSGSGSGTDFTLTISSLQPEDFATYYCQQSYTTPPTFGQGTKVEIKGSGSGHHHHHH
